In publication PMC6529632, “Robust Stoichiometry of FliW-CsrA Governs Flagellin Homeostasis and Cytoplasmic Organization in Bacillus subtilis” (mBio, 2019):

Columns and labels:
[1] = biological target: T1, FliW (Bacillus subtilis (3610?)) (UniProt P96503); assay: EMSA; details: 40 mM Tris-HCl pH 7.5, 4 mM MgCl2, 100 mM KCl, 20 ng/ul yeast RNA, 20 mM DTT, 10% glycerol, 4 U RNase inhibitor, 20 pM RNA, 37 C 30 min (FliW added for a …)
T1 sequence: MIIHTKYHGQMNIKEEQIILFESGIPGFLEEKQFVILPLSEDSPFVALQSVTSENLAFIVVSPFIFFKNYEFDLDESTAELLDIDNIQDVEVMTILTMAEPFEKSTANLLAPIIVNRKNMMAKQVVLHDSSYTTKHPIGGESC

[2] = biological target: T2, CsrA-WT-His6 (Bacillus subtilis (3610?)) (UniProt P33911); assay: EMSA; details: 40 mM Tris-HCl pH 7.5, 4 mM MgCl2, 100 mM KCl, 20 ng/ul yeast RNA, 20 mM DTT, 10% glycerol, 4 U RNase inhibitor, 20 pM RNA, 37 C 30 min (FliW added for a …)
T2 sequence: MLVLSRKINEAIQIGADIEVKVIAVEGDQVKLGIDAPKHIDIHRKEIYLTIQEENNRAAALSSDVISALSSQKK

[3] = biological target: T3, CsrA-Hetero (CsrA-WT-His6/CsrA-N55D-strep) N55D (Bacillus subtilis (3610?)) (UniProt P33911+P33911); assay: EMSA; details: 40 mM Tris-HCl pH 7.5, 4 mM MgCl2, 100 mM KCl, 20 ng/ul yeast RNA, 20 mM DTT, 10% glycerol, 4 U RNase inhibitor, 20 pM RNA, 37 C 30 min (FliW added for a …)
T3 sequence 1: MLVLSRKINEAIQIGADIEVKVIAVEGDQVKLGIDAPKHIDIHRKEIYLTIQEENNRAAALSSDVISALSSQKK
T3 sequence 2: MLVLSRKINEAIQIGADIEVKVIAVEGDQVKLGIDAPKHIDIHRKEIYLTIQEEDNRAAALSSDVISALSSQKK

[4] = biological target: T4, CsrA-N55D-strep N55D (Bacillus subtilis (3610?)) (UniProt P33911); assay: EMSA; details: 40 mM Tris-HCl pH 7.5, 4 mM MgCl2, 100 mM KCl, 20 ng/ul yeast RNA, 20 mM DTT, 10% glycerol, 4 U RNase inhibitor, 20 pM RNA, 37 C 30 min (FliW added for a …)
T4 sequence: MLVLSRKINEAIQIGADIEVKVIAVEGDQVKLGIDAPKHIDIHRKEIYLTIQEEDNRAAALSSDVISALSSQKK

[5] = system: CsrA-WT-His6 (Bacillus subtilis (3610?)); assay: EMSA; details: apparent Kd; main text gives 290 nM; 40 mM Tris-HCl pH 7.5, 4 mM MgCl2, 100 mM KCl, 20 ng/ul yeast RNA, 20 mM DTT, 10% glycerol, 4 U RNase inhibitor, 20 pM RNA, 37 C 30 min (FliW added for a …)
[6] = system: CsrA-N55D-strep (Bacillus subtilis (3610?)); assay: EMSA; details: apparent Kd; 40 mM Tris-HCl pH 7.5, 4 mM MgCl2, 100 mM KCl, 20 ng/ul yeast RNA, 20 mM DTT, 10% glycerol, 4 U RNase inhibitor, 20 pM RNA, 37 C 30 min (FliW added for a …)
[7] = system: FliW (Bacillus subtilis (3610?)); assay: EMSA; details: apparent Kd; FliW alone; 40 mM Tris-HCl pH 7.5, 4 mM MgCl2, 100 mM KCl, 20 ng/ul yeast RNA, 20 mM DTT, 10% glycerol, 4 U RNase inhibitor, 20 pM RNA, 37 C 30 min (FliW added for a …)
[8] = system: CsrA-Hetero (CsrA-WT-His6/CsrA-N55D-strep) (Bacillus subtilis (3610?)); assay: EMSA; details: apparent Kd; main text gives 460 nM; 40 mM Tris-HCl pH 7.5, 4 mM MgCl2, 100 mM KCl, 20 ng/ul yeast RNA, 20 mM DTT, 10% glycerol, 4 U RNase inhibitor, 20 pM RNA, 37 C 30 min (FliW added for a …)
[9] = biological target: T5, CsrA^N55D-strep (monomer co-expressed with CsrA^WT-His6) (Bacillus subtilis, UniProt P33911 1-74, N55D); assay: sequential affinity co-purification with SDS-PAGE; both chains co-expressed from one vector in E. coli; Ni-NTA by the His6 tag, then Strep-Tactin by the Strep tag, then size exclusion; Coomassie-stained denaturing gel, densitometry; details: partners not purified
T5 construct: CsrA of Bacillus subtilis with N55D; Same chain as in m2 and m3; Written as a single chain for the pair row of the heterodimer; also called CsrA^N55D-strep tag; source: Rosetta-gami E. coli, co-expressed with CsrA^WT-His6 from dual-expression vector pRO76
T5 sequence (looked up): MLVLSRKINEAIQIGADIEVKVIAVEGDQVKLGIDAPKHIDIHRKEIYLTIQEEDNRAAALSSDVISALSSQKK

What does the source list for “GGUAGCCGGGAGGAGGCGCAAAAGACUCAGCCAGUUACAAAAUAAGGGCACAAGGACGUGCCUUAACAACAUAUUCAGGGAGGAACAAAACAAUGAGAAUU [hag 5' UTR transcript +1 to +100]”?
Kd [1]: 1110 nM; Kd [2]: 287 nM; Kd [3]: 458 nM; Kd [4]: 960 nM; binding [4]: binds

For hag 5' UTR transcript +1 to +100, which Kd [5] is on record?
The Kd was 287 nM.

What about the Kd [6] of the same molecule?
The Kd was 960 nM.

What about the Kd [7] of the same molecule?
Its Kd is 1110 nM.

What about the Kd [8] of the same molecule?
The Kd was 458 nM.

B1: CsrA^WT-His6 (monomer co-expressed with CsrA^N55D-strep) (natural protein, Bacillus subtilis, UniProt P33911 1-74, looked up)
chain: MLVLSRKINEAIQIGADIEVKVIAVEGDQVKLGIDAPKHIDIHRKEIYLTIQEENNRAAALSSDVISALSSQKK
notes: CsrA of Bacillus subtilis, wild type, amplified from pCSB9; Same chain as in m1 and m3; Written as a single chain for the pair row of the heterodimer; also called CsrA-His6; source: Rosetta-gami E. coli, co-expressed with CsrA^N55D-strep from dual-expression vector pRO76
B1 was tested. Which “stoichiometry N” value [9] did it give?
Its value is 0.88.
